From PMC1847702 (PLoS ONE, 2007)

Molecular target: T1, ubiquitin-vinylmethylester (UniProt P0CG48 1-76, vinylmethylester (Michael acceptor) added to the C-terminus)
T1 construct: also called ubiquitin-VME; ubiquitin probe
Assay: covalent adduct formation with electrophilic (activity-based) probe, SDS-PAGE and Coomassie staining
Conditions: both partners purified

B1: His-tagged elaD, bacterially expressed (enzyme)
chain: MMVTVVSNYCQLSQTQLSQTFAEKFTVTEELLQSLKKTALSGDEESIELLHNIALGYDKFGKEAEDILYHIVRTPTNETLSIIRLIKNACLKLYNLAHIATNSPLKSHDSDDLLFKKLFSPSKLMTIIGDEIPLISEKQSLSKVLLNDENNELSDGTNFWDKNRQLTTDEIACYLQKIAANAKNTQVNYPTGLYVPYSTRTHLEDALNENIKSDPSWPNEVQLFPINTGGHWILVSLQKIVNKKNNKLQIKCVIFNSLRALGYDKENSLKRVINSFNSELMGEMSNNNIKVHLNEPEIIFLHADLQQYLSQSCGAFVCMAAQEVIEQRESNSDSAPYTLLKNHADRFKKYSAEEQYEIDFQHRLANRNCYLDKYGDANINHYYRNLEIKHSQPKNRASGKRVS
notes: also called recombinant elaD
binding result: binds
